Laboratory results as given in publication PMC2173332.
Where two headings read alike, the source gives them in different places.

Tests used:
[1] = target: acyl-CoA oxidase isoform Aox1p (Yarrowia lipolytica); experiment: co-IP
[2] = target: acyl-CoA oxidase isoform Aox1p (Yarrowia lipolytica); experiment: co-IP; remark: listed apart in the source

stoichiometry N [1] | stoichiometry N [2] | Substance
1 | 1 | acyl-CoA oxidase isoform Aox4p (enzyme)
1 | 1 | acyl-CoA oxidase isoform Aox5p (enzyme)
1 | 1 | acyl-CoA oxidase isoform Aox3p (enzyme)
1 | 1 | acyl-CoA oxidase isoform Aox2p (enzyme)
